Source: patent publication US20260201029A1 (Janssen / Centocor, published 2026)
Read-outs that look alike come from different tables or passages of the source.

Key:
[1] = biological target: T1, human FcγRIIa (human, UniProt P12318 36-218, limits assumed); assay: SPR, receptor captured by anti-his, antibody injected, steady-state fit
T1 construct: His-tagged (captured on anti-his surface); construct and allele not described; also called hu-RIIa; FcgRIIa
T1 sequence (looked up): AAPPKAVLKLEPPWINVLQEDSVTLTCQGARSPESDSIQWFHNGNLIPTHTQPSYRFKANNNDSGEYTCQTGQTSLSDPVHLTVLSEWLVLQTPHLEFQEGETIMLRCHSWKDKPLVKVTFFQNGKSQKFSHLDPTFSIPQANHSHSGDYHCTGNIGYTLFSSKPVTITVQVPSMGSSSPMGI

[2] = biological target: T2, cynomolgus FcγRIIa (cynomolgus); assay: as above
T2 construct: His-tagged (captured on anti-his surface); construct not described; also called cy-RIIa; FcgRIIa

[3] = biological target: T3, cynomolgus FcγRIIb (cynomolgus); assay: as above
T3 construct: His-tagged (captured on anti-his surface); construct not described; also called cy-RIIb; FcgRIIb

[4] = biological target: T4, human FcγRIIb/c (human, UniProt P31994 46-217, limits assumed); assay: as above
T4 construct: His-tagged (captured on anti-his surface); construct not described; also called hu-RIIb/c; FcgRIIb
T4 sequence (looked up): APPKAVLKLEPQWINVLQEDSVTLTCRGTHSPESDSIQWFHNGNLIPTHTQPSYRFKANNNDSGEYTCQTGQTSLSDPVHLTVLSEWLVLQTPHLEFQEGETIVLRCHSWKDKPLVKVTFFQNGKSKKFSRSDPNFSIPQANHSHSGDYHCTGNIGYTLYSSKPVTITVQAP

[5] = biological target: T5, human GPRC5D (G-protein coupled receptor family C group 5 member D) (human, UniProt Q9NZD1 1-345); assay: cell-based or functional assay
[6] = biological target: T5, human GPRC5D (G-protein coupled …); assay: cell-based or functional assay; remark: listed apart in the source
[7] = biological target: T6, human GPRC5D nanodisc (human, UniProt Q9NZD1 1-345); assay: SPR, antibody captured by anti-human Fc, GPRC5D-nanodisc injected, 1:1 fit
T6 construct: Bought reagent; also called GPRC5D-nanodiscs (Acro, #GPD-H52D4)

[8] = biological target: T6, human GPRC5D nanodisc; assay: as above; remark: listed apart in the source
[9] = biological target: cyno GPRC5D nanodisc (cynomolgus monkey); assay: as above
[10] = biological target: T7, human FcγRI (human, UniProt P12314 16-288, limits assumed); assay: SPR, receptor captured by anti-his, antibody injected, 1:1 fit
T7 construct: His-tagged (captured on anti-his surface); construct not described; also called hu-RI; FcgRI

[11] = biological target: T8, cynomolgus FcγRIII (cynomolgus, UniProt Q8SPW2 17-208, limits assumed); assay: as above
T8 construct: His-tagged (captured on anti-his surface); construct not described; also called cy-RIII; FcgRIII

[12] = biological target: T9, human FcγRIIIa 158V allele (human, UniProt P08637 17-208); assay: as above
T9 construct: His-tagged (captured on anti-his surface); construct not described; The 158V allele differs from the 158F allele at that one position; also called Hu-RIIIa V; Hu-RIIIaV

[13] = biological target: T10, human FcγRIIIa 158F allele (human, UniProt P08637 17-208); assay: as above
T10 construct: His-tagged (captured on anti-his surface); construct not described; also called Hu-RIIIaF; FcgRIIIa

[14] = biological target: T11, cynomolgus FcγRI (cynomolgus); assay: as above
T11 construct: His-tagged (captured on anti-his surface); construct not described; also called cy-RI; FcgRI

[15] = biological target: T5, human GPRC5D (G-protein coupled …); assay: flow cytometry on H929 cells
[16] = biological target: T5, human GPRC5D (G-protein coupled …); assay: flow cytometry on MM1.R cells

T6 sequence (Q9NZD1 whole entry): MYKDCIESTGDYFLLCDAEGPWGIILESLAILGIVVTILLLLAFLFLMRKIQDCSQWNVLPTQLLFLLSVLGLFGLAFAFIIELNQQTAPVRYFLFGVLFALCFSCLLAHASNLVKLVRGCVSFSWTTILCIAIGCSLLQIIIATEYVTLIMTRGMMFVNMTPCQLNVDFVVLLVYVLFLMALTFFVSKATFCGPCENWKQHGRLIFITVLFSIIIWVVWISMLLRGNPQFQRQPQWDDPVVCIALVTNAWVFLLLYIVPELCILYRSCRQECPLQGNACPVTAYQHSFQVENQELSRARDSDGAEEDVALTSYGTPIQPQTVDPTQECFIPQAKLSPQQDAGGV
T5 sequence (Q9NZD1 whole entry): as above
T9 sequence (P08637 17-208 F176V limits assumed): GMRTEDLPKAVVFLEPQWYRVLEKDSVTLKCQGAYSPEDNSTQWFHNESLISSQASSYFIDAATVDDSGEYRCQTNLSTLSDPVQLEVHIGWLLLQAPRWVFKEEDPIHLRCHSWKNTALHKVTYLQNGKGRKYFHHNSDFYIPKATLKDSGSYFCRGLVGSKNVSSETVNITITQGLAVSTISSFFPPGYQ
T10 sequence (P08637 17-208 limits assumed): as the sequence (P08637 17-208 F176V limits assumed) above, with V160F counted along it
T7 sequence (P12314 16-288 limits assumed): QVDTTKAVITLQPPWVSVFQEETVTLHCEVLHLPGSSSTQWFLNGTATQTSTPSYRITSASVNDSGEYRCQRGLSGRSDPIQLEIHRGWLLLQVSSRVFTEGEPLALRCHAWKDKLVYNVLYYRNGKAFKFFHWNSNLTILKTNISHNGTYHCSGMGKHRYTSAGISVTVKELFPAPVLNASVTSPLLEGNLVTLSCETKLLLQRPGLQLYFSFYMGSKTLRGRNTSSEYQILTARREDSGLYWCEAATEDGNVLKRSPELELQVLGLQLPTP
T8 sequence (Q8SPW2 17-208 limits assumed): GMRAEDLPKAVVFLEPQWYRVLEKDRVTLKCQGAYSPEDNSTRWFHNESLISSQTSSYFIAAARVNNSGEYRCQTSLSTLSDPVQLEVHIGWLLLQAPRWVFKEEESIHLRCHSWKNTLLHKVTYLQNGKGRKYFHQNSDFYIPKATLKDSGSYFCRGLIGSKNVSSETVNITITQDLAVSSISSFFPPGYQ

B1: GC5B1552.AFU (antibody, human IgG1, kappa)
chain: DKTHTCPPCPAPELLGGPSVFLFPPKPEDTLMISRTPEVTCVVVDVSHEDPEVKFNWYVDGVEVHNAKTKPREEQYNSTYRVVSVLTVLHQDWLNGKEYKCKVSNKALPAPIEKTISKAKGQPREPQVYTLPPSREEMTKNQVSLWCLVKGFYPSDIAVEWESNGQPENNYKTTPPVLDSDGSFFLYSKLTVDKSRWQQGNVFSCSVMHEALHNHYRQKSLSLSPGK
heavy: not shown
light: DIQMTQSPSSLSASVGDRVTITCRASQGIRNDLGWYQQKPGKAPKRLIYAASSLQSGVPSRFSGSGSGTEFTLTISSLQPEDFATYYCLQRNTYPLTFGGGTKVEIKRTVAAPSVFIFPPSDEQLKSGTASVVCLLNNFYPREAKVQWKVDNALQSGNSQESVTEQDSKDSTYSLSSTLTLSKADYEKHKVYACEVTHQGLSSPVTKSFNRGEC
notes: expressed in a FUT8 knockout CHO host, so the Fc glycan is afucosylated; also called GC5B1552.AFU.003; GC5B1552.AFU.001
Fold increase in binding (vs wt IgG1 control) [1]: 2.5 fold | Kd [1]: 3710 nM | Fold increase in binding (vs wt IgG1 control) [2]: 0.9 fold | Kd [2]: 8820 nM | Fold increase in binding (vs wt IgG1 control) [3]: 0.8 fold | Kd [3]: 5400 nM | Fold increase in binding (vs wt IgG1 control) [4]: 1 fold | Kd [4]: 11600 nM | ADCC EC50, AMO-1 cells, primary healthy donor human NK cells [5]: 1.2 nM | ADCC EC50, H929 cells, primary healthy donor human NK cells [5]: 0.04 nM | ADCC EC50, MM.1R cells, primary healthy donor human NK cells [5]: 0.005 nM | ADCP EC50, H929 cells, M1-macrophages [5]: 0.05 nM | ADCP EC50, MM.1R cells, M1-macrophages [5]: 0.05 nM | CDC EC50, AMO-1 cells, CellTiter-Glo, 40% human serum [5]: 35.3 nM | CDC EC50, JIM-3 cells, CellTiter-Glo, 40% human serum [5]: 13.1 nM | CDC EC50, MM.1R cells, CellTiter-Glo, 40% human serum [5]: 8.77 nM | ADCC EC50 (nM), CD138+ MM patient plasma cells, Sample 1 [6]: 0.007 nM | ADCC EC50 (nM), CD138+ MM patient plasma cells, Sample 2 [6]: 0.09 nM | ADCC EC50 (nM), CD138+ MM patient plasma cells, Sample 6 [6]: 0.04 nM | ADCC EC50 (nM), CD138+ MM patient plasma cells, Sample 17 [6]: 0.64 nM | CDC EC50 (nM), CD138+ MM patient plasma cells, Sample 6 [6]: 40.5 nM | CDC EC50 (nM), CD138+ MM patient plasma cells, Sample 17 [6]: 35.5 nM | Kd [7]: 84 nM | koff [7]: 0.00148 s⁻¹ | kon [7]: 18000 M⁻¹ s⁻¹ | Kd [8]: 77 nM | koff [8]: 0.00169 s⁻¹ | kon [8]: 22000 M⁻¹ s⁻¹ | Kd [9]: 1880 nM | koff [9]: 0.0179 s⁻¹ | kon [9]: 9520 M⁻¹ s⁻¹ | Fold increase in binding (vs wt IgG1 control) [10]: 2.2 fold | Kd [10]: 1.3 nM | koff [10]: 0.000738 s⁻¹ | kon [10]: 567000 M⁻¹ s⁻¹ | Fold increase in binding (vs wt IgG1 control) [11]: 33.2 fold | Kd [11]: 11.9 nM | koff [11]: 0.034 s⁻¹ | kon [11]: 2.86e+06 M⁻¹ s⁻¹ | Fold increase in binding (vs wt IgG1 control) [12]: 111 fold | Kd [12]: 8.1 nM | koff [12]: 0.0232 s⁻¹ | kon [12]: 2.85e+06 M⁻¹ s⁻¹ | Fold increase in binding (vs wt IgG1 control) [13]: 50.7 fold | Kd [13]: 75 nM | koff [13]: 0.167 s⁻¹ | kon [13]: 2.24e+06 M⁻¹ s⁻¹ | Fold increase in binding (vs wt IgG1 control) [14]: 1.5 fold | Kd [14]: 1 nM | koff [14]: 0.000659 s⁻¹ | kon [14]: 647000 M⁻¹ s⁻¹

B2: GC5B1552 (antibody)
chain: B1 chain
heavy: not shown
light: B1 light
notes: Monovalent JAWA (K248E/T437R) antibody as named without the .AFU suffix
EC50 [15]: 1.3 nM | EC50 [16]: 3.2 nM
